Measured values as given in US20150246945A1 (JAPANESE FOUNDATION FOR CANCER RESEARCH, published 2015).
Bridge positions count the residues as written; N and C are the ends. Ends that are not written are not given here. * marks the point of attachment. Biotin = O=C1N[C@H]2[C@H](CS[C@H]2CCCCC(=O)*)N1

T1: purified EpCAM (extracellular domain with myc and His tags at the C terminus, expressed in HEK-293T cells) (UniProt P16422 24-265, limits assumed)
T1 construct: extracellular domain; also called epithelial cell adhesion molecule; CD326
T1 sequence (looked up): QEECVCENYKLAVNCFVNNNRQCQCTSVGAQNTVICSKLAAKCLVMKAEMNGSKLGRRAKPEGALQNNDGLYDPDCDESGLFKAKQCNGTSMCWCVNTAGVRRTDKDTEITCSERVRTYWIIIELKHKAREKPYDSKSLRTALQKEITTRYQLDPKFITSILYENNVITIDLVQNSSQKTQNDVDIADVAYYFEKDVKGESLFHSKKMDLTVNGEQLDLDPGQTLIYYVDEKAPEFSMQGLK

T2: EpCAM, whole protein on cells (HT-29, MCF-7, 293T transfected with full-length EpCAM plasmid pkk196) or on … (UniProt P16422 24-314, limits assumed)
T2 construct: whole, on cells; Used for both cell-surface EpCAM and EpCAM carried on HT-29 exosomes; the assay field says which; also called EpCAM on HT-29; EpCAM-expressing cells
T2 sequence (looked up): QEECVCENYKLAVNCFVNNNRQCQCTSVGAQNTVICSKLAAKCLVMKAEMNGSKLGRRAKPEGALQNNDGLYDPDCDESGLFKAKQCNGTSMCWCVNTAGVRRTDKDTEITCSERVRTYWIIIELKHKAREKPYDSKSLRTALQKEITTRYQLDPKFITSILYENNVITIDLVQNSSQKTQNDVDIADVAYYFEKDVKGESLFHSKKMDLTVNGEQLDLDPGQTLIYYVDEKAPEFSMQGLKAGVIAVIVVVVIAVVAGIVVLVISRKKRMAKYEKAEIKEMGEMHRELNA

B1: Ep114(K1A) variant phage (peptide)
chain: AHLQCVRNICWS
modifications: not fully specified (bridges); cysteine pairing not given here; also: displayed on phage
notes: also called variant in which lysine at the 1st residue was substituted by alanine (A); not shown: not described
B2: Ep114(K1S) variant phage (peptide)
chain: SHLQCVRNICWS
modifications: not fully specified (bridges); cysteine pairing not given here; also: displayed on phage
notes: also called variant in which lysine at the 1st residue was substituted by serine (S); not shown: not described
B3: Ep114(K1I) variant phage (peptide)
chain: IHLQCVRNICWS
modifications: not fully specified (bridges); cysteine pairing not given here; also: displayed on phage
notes: also called variant in which lysine at the 1st residue was substituted by isoleucine (I); not shown: not described
B4: Ep114(K1N) variant phage (peptide)
chain: NHLQCVRNICWS
modifications: not fully specified (bridges); cysteine pairing not given here; also: displayed on phage
notes: also called variant in which lysine at the 1st residue was substituted by asparagine (N); not shown: not described
B5: Ep114(L3A) variant phage (peptide)
chain: KHAQCVRNICWS
modifications: not fully specified (bridges); cysteine pairing not given here; also: displayed on phage
notes: not shown: not described
B6: Ep114-displaying phage (peptide)
chain: KHLQCVRNICWS
modifications: cysteine pairing not given here; also: displayed on phage
notes: not shown: fusion and linker not described
B7: PE184 peptide (peptide)
peptide: Ac-KHLQCVRNICWSGGSGGSK(Biotin)-NH2
modifications: not fully specified (bridges); printed as Ac-KHLQCVRNICWSGGSGGSK(biotin)-NH2; cysteine pairing not given here
notes: Ep114 with the linker GGSGGSK, biotin-modified
B8: PE185 peptide (peptide)
peptide: Ac-KHLQCVRNICWSNNNNSNNNNK(Biotin)-NH2
modifications: not fully specified (bridges); printed as Ac-KHLQCVRNICWSNNNNSNNNNK(biotin)-NH2; cysteine pairing not given here
B9: Ep114 peptide (peptide)
peptide: KHLQCVRNICWS
modifications: disulfide 5-10; also: FITC-modified, position not given here
notes: Synthetic peptide, FITC-modified in fluorescence depolarization and cell staining
B10: Ep133 peptide (peptide)
peptide: EHLHCLGSLCWP
modifications: disulfide 5-10; also: FITC-modified, position not given here
notes: as for B9
B11: Ep114(K1M) variant phage (peptide)
chain: MHLQCVRNICWS
modifications: not fully specified (bridges); cysteine pairing not given here; also: displayed on phage
notes: also called variant in which lysine was substituted by methionine (M); not shown: not described
B12: Ep114(K1Y) variant phage (peptide)
chain: YHLQCVRNICWS
modifications: not fully specified (bridges); cysteine pairing not given here; also: displayed on phage
notes: also called variant in which lysine was substituted by tyrosine (Y); not shown: not described
B13: Ep114(K1F) variant phage (peptide)
chain: FHLQCVRNICWS
modifications: not fully specified (bridges); cysteine pairing not given here; also: displayed on phage
notes: also called variant in which lysine was substituted by phenylalanine (F); not shown: not described
B14: Ep114(K1W) variant phage (peptide)
chain: WHLQCVRNICWS
modifications: not fully specified (bridges); cysteine pairing not given here; also: displayed on phage
notes: also called variant in which lysine was substituted by tryptophan (W); not shown: not described
B15: Ep301 control (peptide)
peptide: KSLQSINNLSWP
modifications: also: FITC-modified, position not given here
notes: Ep301 with cysteine at positions 5 and 10 substituted by serine

target: T1, purified EpCAM (extracellular domain …); experiment: phage bound to EpCAM, captured on beads, phages counted
Procedure: The analysis was conducted using the variants in which lysine at the 1st residue was substituted by alanine (A), asparagine (N), serine (S), or isoleucine (I), and M13KE, Ep114, and the variant in which leucine at the 3rd residue was substituted by alanine as controls. Each phage of 1×10¹⁰ PFU was bound to 1 μg of EpCAM, and then mixed with 0.4 mg of beads pretreated overnight with 0.5% BSA and B&W buffer (5 mM Tris-HCl (pH 7.5), 0.5 mM EDTA, and 1 M NaCl). The number of phages bound to the beads was counted.

Binder	binding result
B1	binds
B2	binds
B3	binds
B4	binds
B5	binds
B6	binds

target: T2, EpCAM, whole protein on cells (HT-29, …); experiment: pull-down of HT-29 exosomes on peptide-loaded streptavidin beads, Western blot with anti-EpCAM
Procedure: 250 μg of streptavidin-magnetic beads (Dynabeads® M-280 streptavidin, VERITAS Corp.) in TBS containing 2% BSA was added to 20 μg of the biotinylated Ep114 peptide and shaken at room temperature for 30 minutes, followed by washing with TBS. Beads reacted without the peptide were used as a control. The anti-Ep114 antibody was added to the beads in TBST and reacted at room temperature for 1 hour. After washing with TBS, the beads were collected. The collected beads were heated at 95° C. for 5 minutes in a SDS sample buffer. After Western-blotting, the anti-Ep114 antibody was detected using HRP-labeled anti-rabbit antibodies.
The binding to exosomes was confirmed using the Western blot system in the similar method as in the preceding paragraph 1. Specifically, 20 μg of the biotinylated Ep114 peptide, the PE183 peptide, the PE184 peptide, or the PE185 peptide was bound to 250 μg of streptavidin-magnetic beads and then reacted with exosomes isolated from HT-29 cells as EpCAM-positive cells, followed by Western blot to detect the exosomes using anti-EpCAM polyclonal antibodies (see the left panel of FIG. 5C).

Binder	binding result
B7	binds
B8	binds

target: T1, purified EpCAM (extracellular domain …); experiment: fluorescence depolarization, FITC-modified peptide, Hill fit
Procedure: (§1) Each FITC-modified EpCAM peptide or control peptide was suspended at a concentration of approximately 100 μM in PBS. After centrifugation, the supernatant was collected and diluted 10-fold, and the absorbance was measured at 495 nm From the measurement value, the molar concentration of the peptide was determined using the formula of Beer-Lambert of the following expression 1: […]
(§2) EpCAM is diluted with PBS into several concentrations from 0 until reaching equilibrium (40 nM for the Ep133 peptide), and the FITC-modified peptide whose precise concentration has been measured by the aforementioned method is added to the dilutions thus prepared. The sample was left at a temperature for measurement for 30 minutes or longer and subjected to polarization measurement using a spectrofluorometer FP-6500 (JASCO Corp.) equipped with an automatic polarization measurement unit (JASCO Corp., APH-103). Kd was estimated by curve fitting according to the Hill equation.

Binder	Kd [nM]
B9	1.6
KSLQCINNLCWP (disulfide 5-10; also: FITC-modified, position not given here) [Ep301 peptide]	20
B10	1.5

target: T1, purified EpCAM (extracellular domain …); experiment: fluorescence depolarization
Procedure: as §1, §2

Binder	fold strength of binding compared with Ep301 [times]
B9	≥ 10
B10	≥ 10

target: T1, purified EpCAM (extracellular domain …); experiment: phage ELISA on immobilized EpCAM
Procedure: The phages displaying the peptides in which each amino acid of Ep114 was substituted by alanine are added to the EpCAM- or anti-Ep114 antibody-immobilized plate, and the plate is left still at room temperature for 1 hour. After washing with TBST, HRP-labeled anti-M13 antibodies were reacted therewith, followed by detection using ABTS (2,2′-azinobis(3-ethylbenzothiazoline-6-sulfonic acid). The binding activity against EpCAM is shown in FIG. 3A, and the binding activity against the anti-Ep114 antibody is shown in FIG. 3B. M13KE is a phage displaying no peptide and is a negative control.
As with the alanine substitution variants, variant phages were prepared by the introducing specific mutations to lysine at the 1st residue based on inverse PCR method and analyzed for binding activity against EpCAM. The analysis method involved evaluation by ELISA in the same way as in the functional analysis of the Ep114 peptide by the alanine scanning. In the figure, EpCAM+ and EpCAM− represent the presence and absence of EpCAM immobilization onto a plate, respectively. Corrected value represents a value subtracting the measurement of EpCAM− from the measurement of EpCAM+.

Binder	binding result
B11	binds
B12	binds
B13	binds
B14	binds

target: T1, purified EpCAM (extracellular domain …); experiment: fluorescence depolarization, FITC-modified peptide
Procedure: as §1, §2
The dissociation constants of the EpCAM-binding peptide Ep301 (FIG. 2(D)) disclosed in Patent Literature 2 and Ep301 control (FIG. 2(E)), which was a control peptide derived from Ep301 by the substitution of cysteine at positions 5 and 10 by serine, and a sequence of EpCAM from residue 106 to 119 (FIG. 2(F)) having partial homology to EpCAM-binding peptides were measured similarly.

Binder	binding result
B15	no binding
KAKQCNGTSMCWPK (cysteine pairing not given here; also: FITC-modified, position not given here) [EpCAM partial sequence (sequence of EpCAM from residue 106 to 119)]	no binding
